From patent publication US20040001830A1

Tests used:
Assay in all cases: cell-based or functional assay
Lipidated TF (human) = Lipidated TF (human) (UniProt P13726)
[1] = biological target: Recombinant human soluble TF1-209 (human) (UniProt P13726)
[2] = biological target: Thromboplastin from human (TF source of the TF-dependent clotting assay) (human) (UniProt P13726)

For “FFR-rFVIIa: FVIIa blocked in the active site with D-Phe-L-Phe-L-Arg-chloromethyl ketone (from UniProt P08709 61-212) (enzyme)”, the IC50, inhibition of FXa generation (Assay 5; 10 pM lipidated TF, 100 pM FVIIa, 50 nM FX) (Lipidated TF (human)) was 51 pM, the IC50, inhibition of FVIIa/sTF amidolytic activity (Assay 4; 10 nM sTF, 10 nM FVIIa, substrate S2288) [1] was 7 nM and the IC50, TF-dependent clotting assay (Assay 7) [2] was 0.0044 nM.
